According to publication PMC1260013 (BMC Biochemistry, 2005):
Where “and” joins values, the source holds several entries; their conditions need not be identical. Identical values can stand only once.

B1: Mycobacterium tuberculosis isocitrate dehydrogenase ICD-2 (Rv0066c) (enzyme)
chain: MSAEQPTIIYTLTDEAPLLATYAFLPIVRAFAEPAGIKIEASDISVAARILAEFPDYLTEEQRVPDNLAELGRLTQLPDTNIIKLPNISASVPQLVAAIKELQDKGYAVPDYPADPKTDQEKAIKERYARCLGSAVNPVLRQGNSDRRAPKAVKEYARKHPHSMGEWSMASRTHVAHMRHGDFYAGEKSMTLDRARNVRMELLAKSGKTIVLKPEVPLDDGDVIDSMFMSKKALCDFYEEQMQDAFETGVMFSLHVKATMMKVSHPIVFGHAVRIFYKDAFAKHQELFDDLGVNVNNGLSDLYSKIESLPASQRDEIIEDLHRCHEHRPELAMVDSARGISNFHSPSDVIVDASMPAMIRAGGKMYGADGKLKDTKAVNPESTFSRIYQEIINFCKTNGQFDPTTMGTVPNVGLMAQQAEEYGSHDKTFEIPEDGVANIVDVATGEVLLTENVEAGDIWRMCIVKDAPIRDWVKLAVTRARISGMPVLFWLDPYRPHENELIKKVKTYLKDHDTEGLDIQIMSQVRSMRYTCERLVRGLDTIAATGNILRDYLTDLFPILELGTSAKMLSVVPLMAGGGMYETGAGGSAPKHVKQLVEENHLRWDSLGEFLALGAGFEDIGIKTGNERAKLLGKTLDAAIGKLLDNDKSPSRKTGELDNRGSQFYLAMYWAQELAAQTDDQQLAEHFASLADVLTKNEDVIVRELTEVQGEPVDIGGYYAPDSDMTTAVMRPSKTFNAALEAVQG
notes: also called M.tb ICD-2; M. tb ICD-2
B2: Mycobacterium tuberculosis isocitrate dehydrogenase ICD-1 (Rv3339c) (enzyme)
chain: MSNAPKIKVSGPVVELDGDEMTRVIWKLIKDMLILPYLDIRLDYYDLGIEHRDATDDQVTIDAAYAIKKHGVGVKCATITPDEARVEEFNLKKMWLSPNGTIRNILGGTIFREPIVISNVPRLVPGWTKPIVIGRHAFGDQYRATNFKVDQPGTVTLTFTPADGSAPIVHEMVSIPEDGGVVLGMYNFKESIRDFARASFSYGLNAKWPVYLSTKNTILKAYDGMFKDEFERVYEEEFKAQFEAAGLTYEHRLIDDMVAACLKWEGGYVWACKNYDGDVQSDTVAQGYGSLGLMTSVLMTADGKTVEAEAAHGTVTRHYRQYQAGKPTSTNPIASIFAWTRGLQHRGKLDGTPEVIDFAHKLESVVIATVESGKMTKDLAILIGPEQDWLNSEEFLDAIADNLEKELAN
notes: also called M.tb ICD-1; M. tb ICD-1

Tests used:
SEC = biological target: the molecule itself; assay: SEC
[1] = biological target: the molecule itself; assay: SEC; Superose 6 10/300 GL, room temperature, concentrated ICD-2 (~400 ug; 1.06 mg/ml), high salt (1 M NaCl)
[2] = biological target: the molecule itself; assay: SEC; Superose 6 10/300 GL, room temperature, concentrated ICD-2 (~400 ug; 1.06 mg/ml), low salt (100 mM NaCl)
[3] = biological target: the molecule itself; assay: SEC; Superdex-200 HR 10/30, room temperature, 2.4 mg/ml recombinant ICD-1, calibrated with molecular-mass standards

Protein	stoichiometry N (SEC)	stoichiometry N [1]	stoichiometry N [2]	stoichiometry N [3]
B1	3	2	4	
B2				4 and 2
